In patent US20070036810A1, “Cyclic amp response element activator proteins and uses related thereto” (priority 2003, published 2007):
One block for each substance: values may come before it.

Biological target: GAL4-CREB fusion protein (Stratagene): CREB activation domain fused with the yeast GAL4 DNA binding domain (amino acids 1-147) (yeast) (UniProt P04386)
Assay: cell-based or functional assay

- Fold Induction (luciferase from the genome-integrated pFR-Luc/UAS-Luc reporter in HLR cells, GAL4-CREB co-transfected with CREAP1, normalized to pCMV-BD vector): 233 fold
Substance: human CREAP1 (CRE activating protein 1), full length (from UniProt Q6UUV9 1-634)

- Fold Induction (luciferase from the genome-integrated pFR-Luc/UAS-Luc reporter in HLR cells, GAL4-CREB co-transfected with CREAP2, normalized to pCMV-BD vector): 178 fold
Substance: human CREAP2, full length (from UniProt Q53ET0 1-693)

- Fold Induction (luciferase from the genome-integrated pFR-Luc/UAS-Luc reporter in HLR cells, GAL4-CREB co-transfected with CREAP3, normalized to pCMV-BD vector): 448 fold
Substance: human CREAP3, full length (from UniProt Q6UUV7 1-619)
